In PMC6699855 (The Journal of Biological Chemistry, 2019):
Entries after “also recorded” stand apart in the source; their conditions may differ. Positions of bridges follow the written chain, without caps; N, C: chain ends. Non-standard residues stand in square brackets, D forms with d. Residues, ends and D or L forms follow the SMILES beside them.

Columns and labels:
[1] = pooled human plasma from healthy volunteers; details: 37 °C, up to 18 h
[2] = Proteolytic stability in human plasma; type: in vitro ADME; details: 100 μg in 100 μl human plasma, 37 °C, stopped with 20% TCA; for degradation in human plasma after 18 h: LC-MS/HPLC
Procedure: The proteolytic stability of full-length Evasin-3 and its variants was tested in pooled human plasma from healthy volunteers (Fig. S12A).
100 μg of Evasin-3 variants were dissolved in 100 μl of normal plasma taken from a healthy volunteer and incubated at 37 °C. At a required time point reaction was stopped by addition of 15 μl of 20% TCA to a 15-μl aliquot of a sample and analyzed by LC-MS.

[3] = test system: CXCL8-induced migration of polymorphonuclear neutrophils; test: PMN migration assay (chemotaxis chamber); type: cell-based; details: 1 nM CXCL8 plus 10 nM variant; human neutrophils, 5-μm membrane, 90 min at 37 °C; n = 10 (Evasin-3), 9 (tEv3 17–56), 5 (tcEv3 16–56 dPG); CXCL8 alone 624 ± 458, control 98 ± 83
Procedure: To assess the anti-CXCL8 activity of Evasin-3 variants, polymorphonuclear neutrophil (PMN) migration assays were performed. The addition of 1 nM CXCL8 induced significant migration of PMNs (624 ± 458 PMN/mm^2) compared with controls (98 ± 83 PMN/mm^2) in the absence of chemoattractant (Fig. 6). Migration was inhibited by addition of 10 nM of Evasin-3 (206 ± 203 PMN/mm^2).
Human neutrophils were isolated from the blood of healthy donors as described previously ([57]). Isolated neutrophils were resuspended at (10^6 cells/ml) in RPMI 1640 medium supplemented with 1% fetal calf serum. A 12-well chemotaxis chamber with a 5-μm polycarbonate membrane (Neuroprobe, Gaithersburg, MD) was used to assess the migration of neutrophils toward the chemoattractant CXCL8 (1 nM) in presence or absence of Evasin-3 variants (10 nM). The chemoattractant was added in the lower wells, and the neutrophils (1 × 10^5 cells) were seeded in the upper wells. After incubation of 90 min at 37 °C, the nonmigrated cells were carefully removed, and the membrane was stained with Diff-Quick stain (Eberhard Lehmann GmbH, Berlin, Germany). Migrated cells were visualized by light microscopy, counted manually in three fields of view, and expressed as cells/mm^2. The data were analyzed by GraphPad Prism 8.0 software using one-way analysis of variance statistical test.

[4] = target: human CXCL8 (interleukin-8), recombinant, residues 6–77 (human); test: NMR titration
[5] = target: human CXCL8 (interleukin-8), recombinant, residues 6–77 (human); test: SEC; protein alone at 0.1 mg/ml; BioSep SEC-s2000; 50 mM sodium phosphate pH 6.65, 150 mM NaCl; masses from the maker's calibration curve
human CXCL8 = target: T1, human CXCL8 (Homo sapiens, UniProt P10145); test: SPR biosensor affinity to immobilized CXCL8; type: binding; details: SPR sensorgrams; association 250 s, dissociation 300 s, 30 μl/min; PBS pH 7.4, 0.05% Tween 20
T1 construct: made in house; host or cells: chemical synthesis (no expression host)
T1 sequence (P10145 21-99): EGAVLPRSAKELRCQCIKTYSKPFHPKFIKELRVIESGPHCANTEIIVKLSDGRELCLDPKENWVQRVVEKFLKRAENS

CXCL8 = details: binding to CXCL8; read-out: Kd value previously measured; cited from earlier work
Source text: In contrast to Evasin-1, where both the N and C termini play a crucial role in chemokine binding ([27], [38]), neither the N nor C terminus of Evasin-3 participate in CXCL8 binding. […] To study the effect of termini on binding, we synthesized two novel CXCL8-binding peptides: linear tEv3 17–56 and cyclic tcEv3 16–56 dPG, both retaining the ICK bundled core of the native protein. The ...

[6] = target: T2, chemically synthetized CXCL8-Biotin (C-terminally biotinylated human CXCL8) (human, UniProt P10145 28-99, biotin at the C-terminus); test: SPR; details: both partners purified
T2 construct: also called immobilized human CXCL8; source: chemically synthetized; not shown: biotin, C-terminal, kept
T2 sequence (looked up): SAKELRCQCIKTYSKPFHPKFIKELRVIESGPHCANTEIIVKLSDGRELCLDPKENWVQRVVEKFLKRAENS

[7] = target: human CXCL8 (interleukin-8), recombinant, residues 6–77 (human); test: NMR titration; [15N,13C]CXCL8 (200 μM) titrated with unlabelled met-Evasin-3; 15N-1H HSQC and filtered NOESY; 25 mM NaAc-d3 pH 4.5, 37 °C; equilibrium after up to 1 h
[8] = target: T3, CXCL8–GAG (fondaparinux) complex (Homo sapiens, UniProt P10145); test: GAG competition for [15N,13C]CXCL8 binding by NMR; details: 30 μM met-Evasin-3 added to 25 μM [15N,13C]CXCL8 with fondaparinux (up to 10-fold excess), 25 °C, pH 7.1; 15N-1H HSQC
T3 construct: human CXCL8 (UniProt: p10145, 6–77); made in house; host or cells: E. coli BL21 (DE3) Star
T3 sequence (P10145 28-99): T2 sequence (looked up)
Source text: To study competition between Evasin-3 and GAGs for CXCL8 binding, [^15N,^13C]CXCL8 was first titrated with increasing concentrations of dalteparin (Fragmin®, Pfizer) and low-molecular-mass heparin with the average molecular mass of 5 kDa. […] Fondaparinux (Arixtra®, GSK), which comprises the five central sulfated sugar units in heparin, has the well-defined composition and the lower molecular mass (1.7 kDa) comparing with Fragmin. For that reason, fondaparinux facilitates collection of NMR spectra of higher quality and was chosen for further NMR titration experiments. […] Observed changes were consistent with results of previous studies describing the interaction of CXCL8 with several heparin oligosaccharides ([29]).
For GAG-binding experiments low-molecular-mass heparin dalteparin (commercial name Fragmin®, Pfizer) and fondaparinux (commercial name Arixtra®, GSK) were purchased from a pharmacy as solutions for injections. 25 μM of [^15N,^13C]CXCL8 was titrated by increasing concentration of aliquots from a stock solution of 5 mg/ml fondaparinux or Fragmin to the final GAG concentration of 0.2 mM at 25 °C, pH 7.1. In the next step, 30 μM of met-Evasin-3 was added to the solution to monitor the displacement of bound fondaparinux and follow Evasin-3–CXCL8 complex formation by a series of 1D proton and ^15N-^1H HSQC spectra.

LVSTIESRTSGDGADNFDVVSCNKNCTSGQNECPEGCFCGLLGQNKKGHCYKIIGNLSGEPPVVRR
cleaved bond [1]: Arg65-Arg66, 2 h; also recorded: V64-Arg65, 2 h

CC[C@H](C)[C@H](NC(=O)[C@H](CCCCN)NC(=O)[C@H](Cc1ccc(O)cc1)NC(=O)[C@@H]1CSSC[C@@H]2NC(=O)[C@H](CCC(=O)O)NC(=O)[C@H](CC(N)=O)NC(=O)[C@H](CCC(N)=O)NC(=O)CNC(=O)[C@H](CO)NC(=O)[C@H]([C@@H](C)O)NC(=O)[C@@H]3CSSC[C@H](NC(=O)[C@H](Cc4ccccc4)NC(=O)[C@H](CSSC[C@H](NC(=O)[C@H](CO)NC(=O)[C@@H](NC(=O)[C@@H](NC(=O)[C@H](CC(=O)O)NC(=O)[C@@H](N)Cc4ccccc4)C(C)C)C(C)C)C(=O)N[C@@H](CC(N)=O)C(=O)N[C@@H](CCCCN)C(=O)N[C@@H](CC(N)=O)C(=O)N3)NC(=O)CNC(=O)[C@H](CCC(=O)O)NC(=O)[C@@H]3CCCN3C2=O)C(=O)NCC(=O)N[C@@H](CC(C)C)C(=O)N[C@@H](CC(C)C)C(=O)NCC(=O)N[C@@H](CCC(N)=O)C(=O)N[C@@H](CC(N)=O)C(=O)N[C@@H](CCCCN)C(=O)N[C@@H](CCCCN)C(=O)NCC(=O)N[C@@H](Cc2c[nH]cn2)C(=O)N1)C(=O)N[C@H](C(=O)NCC(=O)N[C@@H](CC(N)=O)C(=O)O)[C@@H](C)CC [tEv3 17–56] (H-FDVVSCNKNCTSGQNECPEGCFCGLLGQNKKGHCYKIIGN-OH; disulfide 6-21, 10-23, 17-34)
degradation in human plasma after 18 h [2]: equally high proteolytic stability

cyclo(CFCGLLGQNKKGHCYKIIGN[dP]GNFDVVSCNKNCTSGQNECPEG) (disulfide 1-29, 3-33, 14-40) [tcEv3 16–56 dPG]
degradation in human plasma after 18 h [2]: equally high proteolytic stability | PMN migration in presence of Evasin-3 variant [3]: 160 ± 65 PMN/mm^2

truncated Evasin-3 (tEv3 17–56) (from UniProt P0C8E8 37-76) (peptide)
stoichiometry N [4]: 1

human CXCL8 (interleukin-8), recombinant, residues 6–77 (natural protein)
stoichiometry N [5]: 2

B1: Evasin-3: small salivary chemokine-binding protein from the brown dog tick Rhipicephalus sanguineus (UniProt p0c8e8, 1–66) (protein)
chain: LVSTIESRTSGDGADNFDVVSCNKNCTSGQNECPEGCFCGLLGQNKKGHCYKIIGNLSGEPPVVRR
degradation in human plasma after 2 h ([2]; 2 h, LC-MS): degraded nearly quantitatively | degradation in human plasma after 18 h [2]: only ΔC2 could be detected | association and dissociation kinetics compared with truncated variants (human CXCL8): slower association and dissociation kinetics | Kd (CXCL8): 0.43 nM | PMN migration in presence of Evasin-3 variant [3]: 206 ± 203 PMN/mm^2

B2: truncated Evasin-3 (tEv3 17–56) (peptide)
chain: FDVVSCNKNCTSGQNECPEGCFCGLLGQNKKGHCYKIIGN
Kd [6]: 27 nM

B3: met-Evasin-3 (Evasin-3 1–66 with an N-terminal methionine) (natural protein)
chain: MLVSTIESRTSGDGADNFDVVSCNKNCTSGQNECPEGCFCGLLGQNKKGHCYKIIGNLSGEPPVVRR
stoichiometry N [7]: 1 | effect on GAG binding of CXCL8 [8]: completely abolished GAG binding

B4: truncated cyclic Evasin-3 16–56 with a D-Pro-Gly turn (tcEv3 16–56 dPG) (peptide)
chain: cyclo(NFDVVSCNKNCTSGQNECPEGCFCGLLGQNKKGHCYKIIGN[dP]G)
modifications: ends not checked
Kd [6]: 13 nM
